Test results as given in US20250043285A1 (UNM RAINFOREST INNOVATIONS, published 2025).

T1: Myc-UEV^VPS37A (UEV domain of VPS37A only) (UniProt Q8NEZ2 23-217, [35S]-methionine radiolabel)
T1 construct: domain: UEV; the legend is followed; The limits 23-217 are stated for the AlphaFold input, not expressly for the clone; also called Myc-UEV^VP37A; not shown: Myc tag
T1 sequence (looked up): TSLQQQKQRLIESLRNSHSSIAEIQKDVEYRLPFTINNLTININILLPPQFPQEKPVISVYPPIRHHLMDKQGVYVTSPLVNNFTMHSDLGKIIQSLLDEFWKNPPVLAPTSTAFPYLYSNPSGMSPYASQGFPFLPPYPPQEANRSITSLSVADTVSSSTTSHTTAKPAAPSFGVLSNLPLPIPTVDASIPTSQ

T2: FLAG-VPS37A (full length) (UniProt Q8NEZ2 1-397)
T2 construct: Expressed in HEK293T cells for Co-IP; also called FLAG-VPS37A^FL; pDest-FLAG-VPS37A^Full; not shown: FLAG tag
T2 sequence (looked up): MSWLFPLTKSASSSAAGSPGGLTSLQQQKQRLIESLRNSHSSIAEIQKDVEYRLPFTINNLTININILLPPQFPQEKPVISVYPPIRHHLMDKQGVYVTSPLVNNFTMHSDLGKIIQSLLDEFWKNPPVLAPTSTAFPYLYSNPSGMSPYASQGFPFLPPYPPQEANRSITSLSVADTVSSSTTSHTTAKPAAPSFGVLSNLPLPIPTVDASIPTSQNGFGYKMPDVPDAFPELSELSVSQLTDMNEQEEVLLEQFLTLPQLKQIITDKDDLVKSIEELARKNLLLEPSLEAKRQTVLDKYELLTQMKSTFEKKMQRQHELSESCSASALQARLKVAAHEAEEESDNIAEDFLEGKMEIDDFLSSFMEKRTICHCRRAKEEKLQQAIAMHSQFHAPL


Columns and labels:
[1] = molecular target: T1, Myc-UEV^VPS37A (UEV domain of VPS37A …); test: GST pulldown of in vitro translated Myc-tagged protein (FIG. 7C)
Description: (§1) 7A, Co-IP analysis of interactions between FLAG-VPS37A and GFP-LC3A and GFP-GABARAP (GABA) in HEK293T cells. 5% of input was loaded. 7B, Schematic of VPS37A full length and deletion constructs: (i) VPS37A^FL, full length, (ii) VPS37A^deltaUEV deletion of UEV (cyan), (iii) UEV^VPS37A, UEV domain only (cyan), (iv) VPS37A^{deltaN(1-90)} deletion of residues 1-90, (v) VPS37A^{deltaN(1-20)}, deletion of residues 1-20 (red), (vi) VPS37A^{Nter-EGFP}, N-ter 1-22 chimera with GFP. 7C, GST-Pull down of Myc-UEV^VP37A and Myc-VPS37AdeltaCEV with GST or GST-LC3A, GST-LC3C and GST-GABARAP, 2% of Input was loaded. 7D, Co-IP between GFP-LC3A with FLAG-VPS37A^FL, UEV^VPS37A and VPS37A^deltaCEV. 7E, VPS37AdeltaCEV AlphaFold predicted structure; sequence, 1-22 residues, N-terminus of VPS37A (red, residues predicted to contact mATG8s. 7F, Representation of AlphaFold predicted complexes (rank 1; VPS37A^deltaCEV and GABARAP). 7G,7H Co-IP analyses in HEK293T cells expressing FLAG-VPS37A and GFP-LC3A (in 7H) or GFP-GABARAP (in 7G).
GST pull-down Assay. Recombinant GST and GST-fusion proteins were produced in Escherichia coli SoluBL21 (Genlantis, #C700200) by inducing expression in overnight cultures with 50-75 μg/mL isopropyl β-D-1-thiogalactopyranoside (IPTG). Expressed proteins were purified by immobilization on Glutathione Sepharose 4 Fast Flow beads (GE Healthcare, #17-5132-01). […]

GST-LC3B = GST-LC3B (UniProt Q9GZQ8 1-125); test: GST pulldown of in vitro translated [35S] Myc-VPS37A
Description: Myc-VPS37A with GST or GST tagged LC3A, LC3B, LC3C, GABARAP, GABARAP-L1 and GABARAP-L2. 2% of input was loaded. 1B, AlphaFold predicted complexes between VPS37^{AdeltaCEV} and GABARAP. 1C, Schematic representation of HaloTag (HT)-LC3B MIL/MPL assay adapted for quantitative high content microscopy (HCM). MIL⁺ profiles, HT-LC3B accessible to membrane impermeant ligand; MPL⁺ profiles, HT-LC3B remaining available (not saturated with MIL) to membrane permeant ligand. 1D, MIL/MPL assay in HeLa^WT and HeLa^HexaKO expressing HT-LC3B, starved in EBSS for 90 min±100 nM BafA1. Cells were sequentially incubated with HT ligands MIL and MPL, and HCM quantification carried out; (d-i) MIL-accessible membrane-bound HT-LC3B; (d-ii) MPL-accessible membrane-bound HT-LC3B (remaining available to MPL after MIL saturation). (d-iii) MIL/MPL puncta ratio. […]

[2] = molecular target: T2, FLAG-VPS37A (full length); test: Co-IP of FLAG-VPS37A and GFP-GABARAP in HEK293T cells (FIG. 7A)
Description: as §1
Immunoblotting and co-immunoprecipitation assays. Immunoblotting and co-immunoprecipitation (Co-IP) were performed as described previously⁴. For Co-IP, 10 cm dish cells were transfected with 12 μg of plasmids, wherever stated, and lysed in NP-40 buffer containing protease inhibitor cocktail (Roche, cat #11697498001) and PMSF (Sigma, cat #93482). […]

Row | Binder | binding result [1] | further results
1 | GST-LC3C (other, UniProt Q9BXW4 1-147, looked up, Recombinant, made in E. coli, held on glutathione Sepharose beads; also called GTS-LC3C; not shown: GST tag) MPPPQKIPSVRPFKQRKSLAIRQEEVAGIRAKFPNKIPVVVERYPRETFLPPLDKTKFLVPQELTMTQFLSIIRSRMVLRATEAFYLLVNNKSLVSMSATMAEIYRDYKDEDGFVYMTYASQETFGCLESAAPRDGSSLEDRPCNPL | no binding | 
2 | Myc-VPS37A (in vitro translated, [35S]-radiolabeled, full length) (other, [35S]-methionine radiolabel, In vitro translated in reticulocyte lysate; also called VPS37A^FL; not shown: Myc tag) MSWLFPLTKSASSSAAGSPGGLTSLQQQKQRLIESLRNSHSSIAEIQKDVEYRLPFTINNLTININILLPPQFPQEKPVISVYPPIRHHLMDKQGVYVTSPLVNNFTMHSDLGKIIQSLLDEFWKNPPVLAPTSTAFPYLYSNPSGMSPYASQGFPFLPPYPPQEANRSITSLSVADTVSSSTTSHTTAKPAAPSFGVLSNLPLPIPTVDASIPTSQNGFGYKMPDVPDAFPELSELSVSQLTDMNEQEEVLLEQFLTLPQLKQIITDKDDLVKSIEELARKNLLLEPSLEAKRQTVLDKYELLTQMKSTFEKKMQRQHELSESCSASALQARLKVAAHEAEEESDNIAEDFLEGKMEIDDFLSSFMEKRTICHCRRAKEEKLQQAIAMHSQFHAPL |  | binding result (GST-LC3B): no binding
3 | GST-GABARAP (other, UniProt O95166 1-117, looked up, Recombinant, made in E. coli, held on glutathione Sepharose beads; not shown: GST tag) MKFVYKEEHPFEKRRSEGEKIRKKYPDRVPVIVEKAPKARIGDLDKKKYLVPSDLTVGQFYFLIRKRIHLRAEDALFFFVNNVIPPTSATMGQLYQEHHEEDFFLYIAYSDESVYGL | no binding | 
4 | GFP-GABARAP (other, UniProt O95166 1-116, looked up, Expressed in HEK293T cells for Co-IP; also called GFP-GABARAP (GABA); pDest-GFP-GABARAP; not shown: GFP) MKFVYKEEHPFEKRRSEGEKIRKKYPDRVPVIVEKAPKARIGDLDKKKYLVPSDLTVGQFYFLIRKRIHLRAEDALFFFVNNVIPPTSATMGQLYQEHHEEDFFLYIAYSDESVYG |  | binding result [2]: binds
